In patent publication US20070166299A1, “TREATMENT FOR EMBOLIC STROKE” (priority 2005, published 2007):
“Also recorded” adds a separate entry of the source.

Columns and labels:
[1] = tested on: small clot embolic strokes in rabbits; experiment: rabbit small clot embolic stroke model (RSCEM), quantal analysis of behavior; type: in vivo
Description: The invention used a rabbit small clot embolic stroke model (RSCEM) that reproduces many facets of human AIS including a well-defined clinical endpoint. The RSCEM utilizes administration of a suspension of small blood clots to induce strokes, and behavioral deficits that can be measured quantitatively. Moreover, the RSCEM is useful to conduct studies testing the effects of single drugs or drug combinations such as a neuroprotective agent (e.g., NXY-059) plus a thrombolytic (Tenecteplase, Alteplase, Desmoteplase and the like). Since it is likely that a drug combination will be used for patient management it is important to determine whether there are any interactions (positive or negative) between the compounds when administered following embolic strokes.
Methods: Male New Zealand white rabbits were anesthetized using halothane (5% induction, 2% maintenance by facemask), the bifurcation of the right carotid artery was exposed and the external carotid was ligated just distal to the bifurcation, where a catheter was inserted into the common carotid and secured with ligatures. The incision was closed around the catheter with the distal ends left accessible outside the neck; the catheter was filled with heparinized saline and plugged with an injection cap. Rabbits were allowed to recover from anesthesia for a minimum of 3 h until they awoke and behaved normally.
For the RSCEM, microclots were prepared from blood drawn from a donor rabbit and allowed to clot at 37° C. All rabbits in the study received injections of the same sized microclots. For embolization, clot particles were rapidly injected through the carotid catheter and both the syringe and catheter were flushed with 5 ml of normal saline. […]
Quantal Dose-Response Analysis: For the RSCEM, a quantal dose-response data analysis technique was used. […] The P50 values are then calculated. […] The data were analyzed using the t-test, which included the Bonferroni correction where appropriate. […]

[2] = tested on: small clot embolic strokes in rabbits; details: previous studies; cited from earlier work

B1: Tenecteplase: thrombolytic agent supplied by Genentech as a lyophilized cake, the formulation used clinically (protein, UniProt P00750 36-562, looked up, variant T103N N117Q K296A H297A R298A R299A)
Tissue-type plasminogen …: SYQVICRDEKTQMIYQQHQSWLRPVLRSNRVEYCWCNSGRAQCHSVPVKSCSEPRCFNGGTCQQALYFSDFVCQCPEGFAGKCCEIDTRATCYEDQGISYRGNWSTAESGAECTNWQSSALAQKPYSGRRPDAIRLGLGNHNYCRNPDRDSKPWCYVFKAGKYSSEFCSTPACSEGNSDCYFGNGSAYRGTHSLTESGASCLPWNSMILIGKVYTAQNPSAQALGLGKHNYCRNPDGDAKPWCHVLKNRRLTWEYCDVPSCSTCGLRQYSQPQFRIKGGLFADIASHPWQAAIFAAAAASPGERFLCGGILISSCWILSAAHCFQERFPPHHLTVILGRTYRVVPGEEEQKFEVEKYIVHKEFDDDTYDNDIALLQLKSDSSRCAQESSVVRTVCLPPADLQLPDWTECELSGYGKHEALSPFYSERLKEAHVRLYPSSRCTSQHLLNRTVTDNMLCAGDTRSGGPQANLHDACQGDSGGPLVCLNDGRMTLVGIISWGLGCGQKDVPGVYTKVTNYLDWIRDNMRP
[1]; Tenecteplase 0.9 mg/kg IV bolus, 1 hour following embolization
  P50: 2.76 ± 0.37 mg
[1]; Tenecteplase 0.9 mg/kg, 1 hour following embolization
  increase of P50 over control: 130%
[1]; Tenecteplase 0.9 mg/kg, 6 hours following embolization
  P50 compared to control: did not increase the P50 compared to control; also recorded: neither Tenecteplase, nor NXY-059, significantly (p>0.05) affect P50 values
[2]
  therapeutic window: 3 h
